Target: T1, GST-PBD46 (peptide derivative of p21-activated serine/threonine kinase, PAK Binding Domain 46)
T1 chain: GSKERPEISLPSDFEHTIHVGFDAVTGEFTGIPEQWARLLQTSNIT
Experiment: pull-down

ΔI (pull-down band intensity, wild type:PBD46 relative to T35A:PBD46): 4.2 ± 0.59
B1: Cdc42 wild type (natural protein)
chain: not shown
